Assay results from PMC9765618, “PML Body Component Sp100A Is a Cytosolic Responder to IFN and Activator of Antiviral ISGs” (mBio, 2022).

Molecular target: T1, bacterially purified His-tagged hemagglutinin (HA)-PKM2 (human, UniProt P14618 1-531)
T1 construct: pyruvate kinase 2 (PKM2), human; also called His-HA-PKM2
Test: pull-down
Settings: both partners purified

T1 sequence (P14618 whole entry): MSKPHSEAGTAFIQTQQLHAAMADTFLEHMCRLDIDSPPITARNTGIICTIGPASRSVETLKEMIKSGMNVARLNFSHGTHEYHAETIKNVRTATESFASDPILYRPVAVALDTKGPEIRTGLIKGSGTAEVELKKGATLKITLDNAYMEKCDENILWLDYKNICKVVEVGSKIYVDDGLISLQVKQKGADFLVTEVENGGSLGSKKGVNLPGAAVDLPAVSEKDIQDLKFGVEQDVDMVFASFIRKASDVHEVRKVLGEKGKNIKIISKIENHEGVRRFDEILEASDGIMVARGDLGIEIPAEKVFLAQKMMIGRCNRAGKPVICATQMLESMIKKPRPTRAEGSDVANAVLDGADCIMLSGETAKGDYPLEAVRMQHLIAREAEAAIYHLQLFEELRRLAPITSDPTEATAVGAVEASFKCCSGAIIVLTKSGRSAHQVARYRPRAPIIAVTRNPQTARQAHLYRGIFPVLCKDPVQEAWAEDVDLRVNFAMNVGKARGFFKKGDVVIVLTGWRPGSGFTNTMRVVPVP

binding result: binds
B1: bacterially purified GST-tagged Sp100A (natural protein)
chain: not shown
notes: Sp100A, isoform A of human Sp100; also called GST-Sp100A
